From patent US20230250158A1

Target: SARS-CoV-2 Spike protein on VSV pseudotyped virus particles (Wuhan-1 isolate Spike sequence) (SARS-CoV-2) (UniProt P0DTC2)
Test: cell-based or functional assay

| Substance | IC50 in pseudovirus assays [µg/mL] |
| --- | --- |
| REGN10933 (antibody) | 0.67 |
| REGN10987 (antibody) | 0.45 |
